From article PMC12718150

What was measured:
[1] = target: 2-hydroxy-hept-2,4-diene-1,7-dioate (HHDD) isomerase (HHDDI) from Acinetobacter baumannii TH (Acinetobacter baumannii TH); assay: SEC; single purified enzyme (0.5-1.0 mg/ml) on ENrich SEC650 (10 x 300 mm), buffer G (50 mM HEPES, pH 7.0, 150 mM NaCl), 0.5 ml/min, 4 °C; native MW from a calibration curve of protein standards against subunit MW
[2] = target: 2-hydroxy-hept-2,4-diene-1,7-dioate (HHDD) isomerase (HHDDI) from Acinetobacter baumannii TH (Acinetobacter baumannii TH)
[3] = target: 2-hydroxy-hept-2,4-diene-1,7-dioate (HHDD) isomerase (HHDDI) from Acinetobacter baumannii TH (Acinetobacter baumannii TH); assay: SEC; ENrich SEC650 gel filtration column, FPLC; OPETD and HHDDI mixed at 1:1 molar ratio (0.5 and 1.0 mg/ml), incubated on ice in buffer G (50 mM HEPES, pH 7.0, 150 mM NaCl); 0.5 ml/min, 4 °C; native MW from a calibration curve

stoichiometry N [1]	tri-acid decarboxylation activity of the OPETD-HHDDI complex against HHDDI alone (synthesized tri-acid substrate, LC-MS/MS of the di-acid) [2] [fold]	tri-acid decarboxylation activity of the OPETD-HHDDI complex against OPETD alone (synthesized tri-acid substrate, LC-MS/MS of the di-acid) [2] [fold]	stoichiometry N (OPETD per HHDDI) [3]	Substance
2	–	–	–	2-hydroxy-hept-2,4-diene-1,7-dioate (HHDD) isomerase (HHDDI) from Acinetobacter baumannii TH (enzyme)
–	12	60	1	5-oxo-pent-3-ene-1,2,5-tricarboxylate (OPET) decarboxylase (OPETD) from Acinetobacter baumannii TH (enzyme)
